Results reported in IntAct's records for PubMed 19122675.

B1: Calmodulin-binding transcription activator 3 (Arabidopsis thaliana (Mouse-ear cress)), Q8GSA7 (parent)
chain: MAEARRFSPVHELDVGQILSEARHRWLRPPEICEILQNYQRFQISTEPPTTPSSGSVFMFDRKVLRYFRKDGHNWRKKKDGKTVKEAHERLKAGSVDVLHCYYAHGQDNENFQRRSYWLLQEELSHIVFVHYLEVKGSRVSTSFNRMQRTEDAARSPQETGDALTSEHDGYASCSFNQNDHSNHSQTTDSASVNGFHSPELEDAESAYNQHGSSTAYSHQELQQPATGGNLTGFDPYYQISLTPRDSYQKELRTIPVTDSSIMVDKSKTINSPGVTNGLKNRKSIDSQTWEEILGNCGSGVEALPLQPNSEHEVLDQILESSFTMQDFASLQESMVKSQNQELNSGLTSDRTVWFQGQDMELNAISNLASNEKAPYLSTMKQHLLHGALGEEGLKKMDSFNRWMSKELGDVGVIADANESFTQSSSRTYWEEVESEDGSNGHNSRRDMDGYVMSPSLSKEQLFSINDFSPSWAYVGCEVVVFVTGKFLKTREETEIGEWSCMFGQTEVPADVISNGILQCVAPMHEAGRVPFYVTCSNRLACSEVREFEYKVAESQVFDREADDESTIDILEARFVKLLCSKSENTSPVSGNDSDLSQLSEKISLLLFENDDQLDQMLMNEISQENMKNNLLQEFLKESLHSWLLQKIAEGGKGPSVLDEGGQGVLHFAASLGYNWALEPTIIAGVSVDFRDVNGWTALHWAAFFGRERIIGSLIALGAAPGTLTDPNPDFPSGSTPSDLAYANGHKGIAGYLSEYALRAHVSLLSLNDKNAETVEMAPSPSSSSLTDSLTAVRNATQAAARIHQVFRAQSFQKKQLKEFGDKKLGMSEERALSMLAPKTHKSGRAHSDDSVQAAAIRIQNKFRGYKGRKDYLITRQRIIKIQAHVRGYQFRKNYRKIIWSVGVLEKVILRWRRKGAGLRGFKSEALVEKMQDGTEKEEDDDFFKQGRKQTEDRLQKALARVKSMVQYPEARDQYRRLLNVVNDIQESKVEKALENSEATCFDDDDDLIDIEALLEDDDTLMLPMSSSLWTS

Variants of: B1
Details: with calm5_soltu PCM5, Q7DMN9
With K907E the “effect of a mutation on the interaction” value was “disrupting interaction”.
